assay: soluble on expression in E. coli; label from the status in PepcDB or PDB records

Row | Sequence | soluble on expression in E. coli
1 | MVQSSSVLREPSMDEILTSIREIIEENAVHPDYFSNEGAAGNSSRENLEIPSEGVYDTSLSVDDAMKALADRIGLSSENHDFSLTKDKESIEAENNTVGVDMQKMKRSSEEQSSVHRTQEHNKPFSQSENVIAGHVELSAYCISSAEKIAKDVLRPAIAEWLQHKLPVLLEDILREEIVRAIKKSS | not soluble
2 | MGSDKIHHHHHHMKQAEEVIHPEALSGTGIMTISREPVVFHCNHYNRFLQLVIEDCHYIDREPILVGSATEVSFRQLRTAFREHPEWSVANRLKYAESMYRFCGFGDLPLGALPHSAEPEFVLVENHSHYGTALRLNYGKRRWPGEHFDLGYAIGALSAIYGQPYGGKIDATALSTGAETTRFHLHLRNSGDRFPLDIPDIPQAVLPQGADQVPPRHIGLHIDEDAIMTAVGTLPLTGDPDGLIPAFGVYLTRHYADYYNLVSFRFERALQEALNTHRYLGEMLWYEYPTLFYYKEKFEHLQGQALARTLLMEAGHICGFNTMGGIMRSDPWYQLIVPQLQCREDWLSGIIACINALGWGVWRIQEIIPNERLILRAWYPYESLGHLRAFGPADHPIDYLMTGIGSSLMNLLYTADITTRPDLTLEFYYQVNRSKAGFWARQTRCMAMGDPYSEVVVERNIL | not soluble
3 | MSLSAGLRFTLEVDGLPPDAFAVVSFHLNQSFSSLFSLDLSLVSQQFLSLEFAQVLDKMAYLTVWQGDDVQRRVKGVVTWFELGENDKNQMLYSMKVCPPLWRTGLRQNFRIFQNEDIESILATILKENGVTEWSPLFSEPHPSREFCVQYGETDYDFLCRMAAEEGIFFYEEHAQKSTDQSLVLCDTVRYLPESFEIPWNPNTRTEVSTLCISQFLYSAQIRPSSVVTKDYTFKRPGWAGRFDQEGQHQDYQRTQYEVYDYPGRFKGAHGQNFACWQMDGWRNNAEVARGTSRSPEIWPGRRIALTGHPQANLNREWQVVASELHGEQPQAVPGRRGSGTTLNNHFAVIPADRTWRPQPLLKPLVDGPQSAVVTGPAGEEIFCDEHGRVRVKFNWDRYNPSNQDSSCWIRVAQAWAGTGFGNLAIPRVGQEVIVDFLNGDPDQPIIMGRTEGHHHHHH | not soluble
4 | DTDMGLTRRLPPLSPNKEKQPDVEINDRNIMRILVNKNDEIILLKKGATGSQDQIIPVKLSDLRRITKEFIANPTNRADLPEKEKRE | not soluble
5 | MSLDALTTLPIKKHTALLNRFPETRFVTQLAKKRASWIVFGHYLTPAQFEDMDFFTNRFNAILDMWKVGRYEVALMDGELTSEHETILKALELDYARIQDVPDLTKPGLIVLDMDSTAIQIECIDEIAKLAGVGEEVAEVTERAMQGELDFEQSLRLRVSKLKDAPEQILSQVRETLPLMPELPELVATLHAFGWKVAIASGGFTYFSDYLKEQLSLDYAQSNTLEIVSGKLTGQVLGEVVSAQTKADILLTLAQQYDVEIHNTVAVGDGANDLVMMAAAGLGVAYHAKPKVEAKAQTAVRFAGLGGVVCILSAALVAQQKLSWKSKEGHHHHHH | soluble
6 | SLSWDSVVERIRIFLVESPIKMARLQGVGNVKGSVKRVLLEVTSADGIVGWGEAAPWEVFTGTPEAAFSALDIYLRPLILGAPIKRVRELMARMDKMLVGHGEAKAAVEMALLDILGKATGLSVADLLGGRVRDRIPLSFSIADPDFDADLERMRAMVPAGHTVFKMKTGVKPHAEELRILETMRGEFGERIDLRLDFNQALTPFGAMKILRDVDAFRPTFIEQPVPRRHLDAMAGFAAALDTPILADESCFDAVDLMEVVRRQAADAISVKIMKCGGLMKAQSLMAIADTAGLPGYGGTLWEGGIALAAGTQLIAATPGISLGCEFYMPHHVLTEDVLEERIANSAGHVIVPDGPGLGISISEASLRGNAKILAER | soluble
7 | MKIFLENLYHSDCYFLPIRDNQQVLVGVELITHFSSEDGTVRIPTSRVIAQLTEEQHWQLFSEQLELLKSCQHFFIQHKLFAWLNLTPQVATLLLERDNYAGELLKYPFIELLINENYPHLNEGKDNRGLLSLSQVYPLVLGNLGAGNSTMKAVFDGLFTRVMLDKSFIQQQITHRSFEPFIRAIQAQISPCCNCIIAGGIDTAEILAQITPFDFHALQGCLWPAVPINQITTLVQR | not soluble
8 | MSDNEIVAGIMRDHIINLLKEGKRIDDRGFEDYRPIEIEVGIIEKAEGSALVKLGSTQVLVGIKTTLGEPFPDTPNMGVMTTNVELVPLASPTFEPGPPDERAIELARVTDRGIRESRALNLEKMVIVPGKIVRVVFIDVHVLDHDGNLMDAIGIASIAALLNAKVPKVEYNEETGEVEILEEKEPLPVERIPIPVTFAKIGNILVVDPSLEEELVMDGRLTVTTDETGHISAVQKGEGGAFKLEEVMYAVETAFKKAEEIRKIVLEAIKKSGE | soluble
9 | MDSAFVDRAWDKWVTTGNVGSSDFEKKMKNPERKNKMLLFGDLIVGICSGPSRLLSTIAKQEGIDIYPVDLKQFIDFMRCGNLPTETFVLGSNQCKNIITSIHENWFAARCLNTSQPAGEGAIVMQTAVYVLVALYDGSIGSASQAMAAADQFASQLSRKNF | soluble
10 | MSISSDWIVPDWPAPPSVRALSTTRQGGVSTGPYGLAGGLPGGLNLGRHVGDGPDAVTQNRRLLRAVLPAEPAWMEQVHGTVVADLDQPLPAPVVADAAIAASPGRVCVVMTADCLPVLLCDARGVTVGAAHAGWRGLCSGVIEQTVERMTDALRACGQEADPTWLAWLGPAIGPDCFEVGAEVRQAFIDAARPDELPATRAAFAEGAADGKFLADLYALARLRLARAGCRDVHGGGLCTMTDAERFYSYRRDRTTGRMATLIWRAA | soluble
11 | MGSDKIHHHHHHMRELRYNPLTGQWIMVSAVRKNRPWRPRNFCPFCPGSEETGYGWEVLLLPNRFPMLSFDAPKPKNEDFYKKARAMGQCSVIVETPKHELRDLDELPREQMVKIVRMWIKITETLKENRNVAYLAIFRNKGEEIGVSLKHPHGQLYALPYIPLKVRLKIENSRRYYKRTGECIFCRIIKEEEKNGERTIYENDNFIVFMPFFASWPFEVHIYPKRHIQYLTDLKVNEIEDLAEVIQVTTATLNAVLDRQMPYAMMIFQAPFKGNYPFYHLHIEFYPILRDNGKVKYTAGIELGTWEFTYDGIPEENARKLKEACKKVSQRMSLKGKCI | not soluble
12 | MGSDKIHHHHHHMSSIFEKYSVRRVINASGKMTILGVSTVDKEVIEAIGEGCKNFFIIEELINKTGEYIANLLGCESALIVSSASAGIAQSVGAMIAKDDMSLVYNVNNPKKQVKREIIIPKGHNVDYGVPVEVMIRLGGGEVVEAGYANMCNKEHIIREINENTAAIMYIKSHHCVQKSMLSVLDAVQVAKEYNLPLIVDAAAEEDLNVYYELGADLVIYSGAKAIEGPSSGLVIGKKKYIDNVKLQSKGIGRAMKIGKENIVGLTCAIERYISNDKVTLKEMEDKLNPFIDKINTIKGVSASITRDSAGREILRGEIDFNEDIINKSTQQIINELRSGEIAIYTRDYKANEGKIEIDIRSVTGSDLDTIYNRIKNIVES | not soluble
13 | MSLTPFGVRSVVFDPDKGLVINGEHVPIRGVNNHHDLGALGAAFNVRAAERQLQLLQQMGANAIRMSHNPPAPELLELTDRMGLLVVDEVFDSWEMKKTPLDFHLIFPQWHEPDLRAMLRRDRNHPSIILWSVGNEVGEQYTGEAGAAIARRLHAIVHAEDPTRPATAAMNYASPEMPLPAALDVISLNYQGEGIRDTPEFEGTERIRKPPQYPAFHAKFPRKAILSSETASALSSRGVYLFPVSAQSSAPVRDGRGGDSVAHQVSAYELHAVDFGSSADKVFAALDRHPFVAGEFVWTGFDYLGEPTPYYSSRSSYSGILDLAGFPKDRYWLYQARWRPELPMAHLLPHWSWPGREGQVTPVHVFTSGDEAELFVNGVSQGRKRKAPLQYRLRWDAVVYQPGELRVQAYKHGRPWASDRVQTAGRATRMQLSADRNQIRGDGKDLSFITVRLLDADGRPAPTAGDRLRFRVEGAGELVATDNGDPTNLEAFVLPEREGHHHHHH | soluble
14 | MGSDKIHHHHHHMLNQQWLTTFIKLVELGHFTHTAEQLFMTQSGVSQQIKKLEQQAGAPLLNRIGKGFELTQAGMALLAHAQALVQQQAELLASFHQDNAYSGECKLACSGSLAMLIYPKLIDRQLQYPELKMSLEAAPNQRIIDRVLDNSIDVGIITQEFAHPELSLRLLGSQRLCLVLPNVWEGRLPRLIEYNFLTELGMIDHPDGMHYWQHFVECHFPQHLPQASKIKRLSYVNQLSQILLPVAKGLGFAVLPEFAIKQVSARDGVLEGLFRVPDASLSAHVASESLYLIQKRHRPLALRYQEIITLIKGLIS | not soluble
15 | MSAEKPEVIITYCIQCQWLLRAAWLAQELLSTFSDDLGKVSLQPGTGGAFRITCDGVQLWERKADGGFPEAKVLKQRLRDQIDPARDLGHNDRQTPSNPQ | soluble
16 | MGSDKIHHHHHHMIKITQVRDGGNHVTQSTLTLDAWVERMKEEVKTCPVTMFRSQLRHVLPGDHCEAADKLPKMMPAAEFRKTEGGQCMKAYNGLVELTVGPLAGRAEVEQVKREAWKLPQTRCAFMGASGHSVKILVAFTRPDNTLPLTRAEAEAFHAHAYIMAVKCYQPQLSFDIRPKEPFLEQYSRLSYDPDVLYRPDSVQFYLSQPMGMPDEMALHTEPAVSGQRPLERALGSYETADALSMLFEAALRQAYIDLDKPDPADEKSSYSWDTLLSQLALNCFRSGIPEEAVVSRARFRHFVRKPLELVRQVVRNVYSRRQDFGSKCALSREQQLSVLIAEFMKRRYEFRFNVQTGEAEFRERHSFCFRFQPVDKRALNSIALDAQAEGIPLWDRDISRYVYSNRVPVYNPLEDFLFNLPEWDGRDRIRPLAQTVPCDNPHWPELFHRWFLNMVAHWRGMDKRYANSVSPLLVGAQGTRKSTLFDFLKLYLA | not soluble
17 | MKRVFVTVGTTSFDDLIARVVAHDSVQILKNLGYNQLVLQIGRGTVVPEPFSTESFTLDVYRYKDSLKEDLQQADLVISHAGAGSCLESLEKGKPLVVVVNEKLMNNHQFELAKQLHREGHLFYCTCSMLPELLQSMDLSTLKCYPPGQPEKFSAFLDKVVGLQK | soluble
18 | MSQQHDYVIGKNAVIETLKSDRKLYKLWMAENTVKGQAQQVIELAKKQGITIQYVPRKKLDQMVTGQHQGVVAQVAAYEYAELDDLYKAAEEKNEQPFFLILDELEDPHNLGSIMRTADAVGAHGIVIPKRRAVGLTTTVAKASTGAIEHIPVARVTNLARTLEEMKERGIWVVGTDASAREDFRNMDGNMPLALVIGSEGKGMGRLVKEKCDFLIKLPMAGKVTSLNASVAAGLLMYEVYRKRNPVGE | not soluble
19 | MDKKTIYFICTGNSCRSQMAEGWGKEILGEGWNVYSAGIETHGVNPKAIEAMKEVDIDISNQTSDLIDNDILKQSDLVVTLCSDADNNCPILPPNVKKEHWGFDDPAGKEWSEFQRVRDEIKLAIEKFKLR | soluble
20 | MAHHHHHHMLSIGMTAMDTEGDVTQMELSALLVHIERCERLLRHPTLLSRLPDEGETIRSRHALYVAERSRREVGGDASSSRKENDAVEGSVRQVERQISQMTLSTEEKSEKTATMPMECHASLNTDGWTVGAGGKAVESYEDVARAVGEKHRHSRIPVEMIVRQTFGGSLCEAEIQRMLCDVPPNFFLTHDETISMQRKLLSEERLEALTRLRNQRHAEL | not soluble
21 | MAHHHHHHMGTLEAQTQGPGSMVTANSTVKVGNVTFSNSAPLALIAGPCQMETRDHAFEMAGRLKEMTDKLGIGLVYKSSFDKANRTSLKAARGIGLEKALEVFSDLKKEYGFPVLTDIHTEEQCAAVAPVVDVLQIPAFLCRQTDLLIAAARTGRVVNVKKGQFLAPWDMKNVLAKITESGNPNVLATERGVSFGYNTLVSDMRALPIMAGLGAPVIFDATHSVQQPGGQGGSTGGQREFVETLARAAVAVGVAGFFIETHEDPDNAPSDGPNMVPIDKMPALLEKLMAFDRIAKAL | soluble

Source: the DeepSol protein solubility set
